The values that follow come from paper PMC2642718.

In the experiment the target is CD43 (leukosialin) on the surface of primary human neutrophils (human (endogenous in primary neutrophils)) (UniProt P16150).
Sequence of UniProt P16150 (P16150 20-400): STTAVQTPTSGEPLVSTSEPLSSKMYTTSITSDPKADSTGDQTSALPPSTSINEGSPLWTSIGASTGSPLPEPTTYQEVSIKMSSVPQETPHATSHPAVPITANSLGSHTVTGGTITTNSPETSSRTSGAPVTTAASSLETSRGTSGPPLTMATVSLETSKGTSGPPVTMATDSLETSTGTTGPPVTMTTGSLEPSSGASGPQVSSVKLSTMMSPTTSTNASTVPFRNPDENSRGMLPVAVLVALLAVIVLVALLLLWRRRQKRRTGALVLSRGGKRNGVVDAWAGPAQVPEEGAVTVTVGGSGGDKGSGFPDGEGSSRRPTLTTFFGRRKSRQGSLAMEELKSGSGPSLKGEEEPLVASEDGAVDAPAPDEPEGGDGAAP

With “StcE (Secreted protease of C1-esterase inhibitor), recombinant purified protein (from UniProt O82882 36-898) (enzyme)”, the migration of human neutrophils across Fbg-coated transwell filters toward fMLP, 25 µg/mL protein (fold reduction) came out at 1.7.

As to “StcE E435D, proteolytically inactive point mutant (from UniProt O82882 36-898) (enzyme)”, the migration of human neutrophils across Fbg-coated transwell filters toward fMLP, 25 µg/mL protein (fold reduction) is 1.7.
